Experimental findings from patent WO2021105669A1 (dated 2021) are described below.

This assay deals with TAFV GP (YP_003815426.1) (Tai Forest Ebola virus, UniProt Q66810 33-676). Description: flow cytometry on transiently transfected HEK293 cells. On the technique in general: A flow cytometer gives signals particle by particle.

B1: 11886 (antibody, V domains shown)
VH: QSVEESGGRLVTPGTPLTLTCIVSGFSLSNYYMSWVRQVPGKGLEWIGVIGWSGTSSYASWAKGRFTISKTASTTVDLKITSPTTEDTATYFCARVLYIGGGFNYYDAFDPWGPGTLVTVSS
VL: DVVMTQTPASVSEPVGGTVTIKCQASQSIGSNLAWYQQKPGQPPKLLIYAASTLASGVPSRFKGSGSGTEFTLTISDLECADAATYYCQCTYYDSSYVYNNFGGGTEVVVK
Regarding B1, the binding result is on record as “binds”.

B2: 11892 (antibody, V domains shown)
VH: QSMEESGGRLVTPGTPLTLTCTVSGFSLSIYSMSWVRQAPGKGLEWIGIIYLGDRAYYASWAKGRFTISKTSSTTVDLKITSPTTEDTATYFCARVAGYAGYGYAFYDAFDPWGPGTLVTVSS
VL: DVVMTQTPASVSEPVGGTVTIKCQASQSIGSNLAWYQQKPGQPPKLLIYAASTLASGVPSRFKGSGSGTEFTLTINGVQCDDTATYYCQCTYYANTYVAETFGGGTEVVVK
Take B2: the binding result is “binds”.

B3: 11881 (antibody, V domains shown)
VH: QSMEESGGRLVTPGTPLTLTCTVSGFSLSIYSMSWVRQAPGKGLEWIGIIYLGDRAYYASWAKGRFTISKTSSTTVDLKITSPTTEDTATYFCARVAGYAGYGYAFYDAFDPWGPGTLVTVSS
VL: DVVMTQTPASVSEPVGGTVTIKCQASQSIGSNLAWYQQKPGQPPKLLIYAASTLASGVPSRFKGSGSGTEFTLTINGVQCDDTATYYCQCTYYASTYVAETFGGGTEVVVK
For the molecule B3, the binding result was “binds”.

B4: 11889 (antibody, V domains shown)
VH: QSLEESGGDLVKPGASLTLTCTASGFSFSSSYWICWVRQAPGKGLEWIACIYAGSSGSTYYASWAKGRFTISKTSSTTVTLQMTSLTAADTATYFCATAYAVSAPFGYTLFKYFELWGPGTLVTVSS
VL: AVVLTQTASPVSAPVGGTVTIKCQASQNIYSDLAWYQQKPGQPPKLLIYDTSNLASGVSSRFKGSRSGTEFTLTISDLECADAATYYCQAYYYSSSSGDTTFGGGTEVVVK
As for B4, the binding result was “binds”.
